From article PMC9712689 (Communications Biology, 2022)

T1: RlpA-Δ32, fluorescently labeled (P. aeruginosa PAO1, UniProt Q9X6V6 32-342, amine reactive RED-NHS dye)
T1 construct: source: E. coli BL21-star (DE3), purified (Ni-NTA), labelled with RED-NHS dye
T1 sequence: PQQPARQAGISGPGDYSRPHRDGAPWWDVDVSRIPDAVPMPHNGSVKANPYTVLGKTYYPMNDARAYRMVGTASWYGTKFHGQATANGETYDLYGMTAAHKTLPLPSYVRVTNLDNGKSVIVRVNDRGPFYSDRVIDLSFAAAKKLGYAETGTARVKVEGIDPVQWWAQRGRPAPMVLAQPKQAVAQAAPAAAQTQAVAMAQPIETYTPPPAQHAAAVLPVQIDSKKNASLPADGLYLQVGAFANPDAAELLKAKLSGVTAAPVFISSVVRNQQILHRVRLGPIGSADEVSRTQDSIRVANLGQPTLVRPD

T2: RlpA-Δ32·MltF2 complex (MST) (P. aeruginosa PAO1, UniProt Q9X6V6;Q9HZY1, amine reactive RED-NHS dye)
T2 sequence 1: T1 sequence
T2 sequence 2: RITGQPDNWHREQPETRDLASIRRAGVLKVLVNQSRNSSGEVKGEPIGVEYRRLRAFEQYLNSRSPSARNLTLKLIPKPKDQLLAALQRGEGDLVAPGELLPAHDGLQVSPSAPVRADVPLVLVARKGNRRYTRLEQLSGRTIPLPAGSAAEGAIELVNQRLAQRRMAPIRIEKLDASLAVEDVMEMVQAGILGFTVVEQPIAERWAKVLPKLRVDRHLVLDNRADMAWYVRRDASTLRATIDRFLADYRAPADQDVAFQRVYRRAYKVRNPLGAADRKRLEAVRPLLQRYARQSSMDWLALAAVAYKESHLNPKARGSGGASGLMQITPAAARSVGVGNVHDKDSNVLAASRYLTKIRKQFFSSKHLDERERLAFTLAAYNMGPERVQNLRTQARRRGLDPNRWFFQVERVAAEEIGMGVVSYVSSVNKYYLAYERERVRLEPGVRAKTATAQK

T3: RlpA-Δ32 (P. aeruginosa PAO1, UniProt Q9X6V6 32-342)
T3 construct: source: E. coli BL21-star (DE3), purified (Ni-NTA)
T3 sequence: T1 sequence

B1: SltB1 (enzyme, P. aeruginosa PAO1, UniProt Q9HX24 1-340, looked up)
chain: GDYDGSPQVAEFVSEMTRDYGFAGEQLMGLFRDVNRKQSILDAISRPAERVKQWKEYRPIFISDARISRGVDFWNKHAEDLARAEKEYGVPAEIIVSIIGVETFFGRNTGSYRVMDALSTLGFDYPPRADFFRKELREFLLLAREQQVDPLSLTGSYAGAMGLPQFMPSSFRAYAVDFDGDGHINIWSDPTDAIGSVASYFKQHGWVTGEPVVSVAEINDESAESAVTRGVDPTMSLGELRARGWRTHDALRDDQKVTAMRFVGDKGIEYWVGLPNFYVITRYNRSAMYAMAVYQLAGEIARARGAH
B2: MltF (enzyme, P. aeruginosa PAO1, UniProt Q9HXN1 33-490, looked up)
chain: PTALERVQKEGVLRVITRNSPATYFQDRNGETGFEYELAKRFAERLGVELKIETADNLDDLYAQLSREGGPALAAAGLTPGREDDASVRYSHTYLDVTPQIIYRNGQQRPTRPEDLVGKRIMVLKGSSHAEQLAELKKQYPELKYEESDAVEVVDLLRMVDVGDIDLTLVDSNELAMNQVYFPNVRVAFDFGEARGLAWALPGGDDDSLMNEVNAFLDQAKKEGLLQRLKDRYYGHVDVLGYVGAYTFAQHLQQRLPRYESHFKQSGKQLDTDWRLLAAIGYQESLWQPGATSKTGVRGLMMLTNRTAQAMGVSNRLDPKQSIQGGSKYFVQIRSELPESIKEPDRSWFALAAYNIGGAHLEDARKMAEKEGLNPNKWLDVKKMLPRLAQKQWYAKTRYGYARGGETVHFVQNVRRYYDILTWVTQPQMEGSQIAESGLHLPGVNKTRPEEDSGDEKL
B3: LptE (natural protein)
chain: not shown
B4: PilA (natural protein)
chain: PQYQNYVARSEGASALATINPLKTTVEESLSRGIAGSKIKIGTTASTATETYVGVEPDANKLGVIAVAIEDSGAGDITFTFQTGTSSPKNATKVITLNRTADGVWACKSTQDPMFTPKGCDN
notes: source: E. coli, purified (Ni-NTA or Strep-Tactin)
B5: SltB2 (enzyme, P. aeruginosa PAO1, UniProt Q9I4G6 1-398, looked up)
chain: QPDASSFPSCLAGLQKKAQAQGISADSYERFTSGLQADLSVLDLLDAQPEFTTPLWDYLAGLVDEQRVSDGKAMLAQHDKLLDQVAARYGVDKYTVVAVWGVESDYGRIFGKRPLLTSLSTLSCYGRRQSFFQGEFLATLKLLQAGDIRDAGITGSWAGAFGHTQFMPSTYARIAVDFDGDGRRDLVGSVPDALGSTANYLKKAGWRTGQPWGYEVKVPADFPASLAGRGKRQPLSAWVARGVRRVDGQPLPGGDEKAAILLPAGAQGPAFLVYRNYDAIYSYNAAESYALAIALLSDRLRGGSGLVASWPTDDPGISRLERKQLQKALLARGYDIGEADGLIGTSTRKAIQAEQKRLGLTPADGRAGRKILEALKGAQP
B6: MltD (enzyme, P. aeruginosa PAO1, UniProt Q9I2T2 1-534, looked up)
chain: QGSGQIKGEAQAKAARPGARAVDVQFNPSWLHTQPGQNAAYNDIWDRMRDGFQLQDAISTNPRIERQRLWFLSNQSFLEQSSARGSLYMHYVVERLEERNMPLELALLPVIESAYNPFALSRSNAAGLWQFIPATGQHFNLRQTNFYDGRRDITASTNAALTYLERLHDMFNGDWMLALAAYNAGEGTVSRAIERNEKLGLPTDYWNLPLPQETQDYVPKLLALSQIVMAPDSYGISLNPINNEPYFQAVRVKRGIDLSSVAALANLDEDELYQLNPAYKRRVTMDGPQQLLVPMEKAAFLTASLDTLKPKEVTAWQQYRVRSGDSLHSIANRYRITVAELKSANRLSSNHLRKGQQLSIPGQIAGGAVKPVYQQLARQASTPARTRSYKVKNGDSLWQIARNNGVDVNDLKRWNGLDKHALKVGQTLKLQGGTQALAARKGNAAGKRDSATYYKVKQGDSMYLIAKRFNVEMKHLQRWNPRSKQALKPGQTLTLYLDTASR
B7: MltB (enzyme, P. aeruginosa PAO1, UniProt Q9HVX3 1-367, looked up)
chain: SSEPTPPPKPAAKPQARTVISPRPVRQSVQPILPLRGDYANNPAAQHFIDRMVSQHGFNRQQLHDLFAQTQRLDWVIRLMDRQAPTYTPPSGPNGAWLRYRKKFVTPGNVQNGVLFWDQYETDLQRASRVYGVPPEIIVGIIGVETRWGRVMGKTRIIDALSTLSFSYPRRAEFFSGELEQFLLQARKEGTDPLALRGSYAGAMGYGQFMPSSFTKYAVDFDGDGHIDLWNPRDAIGSVANYFKQHGWVSGDRVAVPASGRAPSLEDGFKTLYPLDVLASAGLRPQGPLGGHRQASLLRLDMGRNYQYWYGLPNFYVITRYNHSTHYAMAVWELGKEVDRVRHRSVVRQD
B8: MltA (enzyme, P. aeruginosa PAO1, UniProt Q9I4B6 1-385, looked up)
chain: DDGKKEPPPKPAEVTTYNSVPWDALPATSDADLLAGFNAWRSACARLAKDPVWGEPCASATTVAADPTAVRAFLQERMQVYSLRSSSNGDQGLITGYYEPVYHGSLSQGEKTPVPVYGVPDDLVVVALESVYPELKGKRLRGRLEGRVLKPYDDAATIRDNGSSAPVLAWLGDPMDLQFLQIQGSGRIQLEDGRQLRIGYGDQNGHPYKPVGRWLVEQGLVPKEEISMKRIRDWAEANPQRVSELLASNPSFVFFSLRPDSDEGPRGSLNVPLTDGYSVAIDRKVIPLGSLMWLSTTRPDDGSAVVRPVAAQDTGGAIVGEVRADLFWGTGDAAGELAGHMKQPGRLWLLWPKGAPLPAS
B9: AlgO (natural protein)
chain: STAVSVGSAQNSWDSLQPDREQVIASLNVVELLKRHHYNKPPLNDERSAKIYDSYLKMLDPARMYFTAGDIAEFDRWRNRFDDFLKSGDLDPGFVIYKRHLDRLKGRLDYALAMLDKGVDKIDFSVDESLLIDREKAPWAKDTAELDDLWRKKVKDEVLRLKITGKDDKAIQEQLTKRYKNQLSRLKQTRSEDIFQAYINAFAQSYDPHTQYLSPDNAENFDINMSLSLEGIGAVLQSDNDYVKVVRLVPAGPAAKSKQIATSDKIIGVAQGKGEMVDVVGWRLDEVVKLIRGPKGSQVRLEVIPASNAPNDQTSKIVAITREAVKLEDQAAKKSIIKVDHEGRSYKLGVIDLPAFYLDFKAYRAGDPNYKSTTRDVKKLVAELQKDKVDGIVLDLRNNGGGSLQEATELTGLFIDQGPTVLVRNSDGRVDVLNDDEGKAFYTGPLAVLVNRLSASASEIFAGAMQDYHRALILGGQTFGKGTVQTIQPLNHGELKLTLAKFYRVSGQSTQHQGVIPDISYPSIVDDKEIGESALPDSMPWDTIRPVVKDEANPFKPFLAQLKAQHDARTENNADFVYARERLALAQELMKEKTVSLNEAKRRAQQTSIENRQLAMENALRKSKGQEPLKELKREDENALPEEDDKTKPQDDAYLTESGHILLDYLNLNSAVAKH
notes: as for B4
B10: TypA (natural protein, P. aeruginosa PAO1, UniProt Q9HU67 1-605, looked up)
chain: MIENLRNIAIIAHVDHGKTTLVDKLLKLSGTLDRKEAESERVMDSNDQEKERGITILAKNTAIKWNGYNINIVDTPGHADFGGEVERVMSMVDSVLLVVDAQDGPMPQTRFVTQKAFKAGLRPIVVVNKIDRPGARPDWVIDQIFDLFDNLGATDEQLDFPIVYASALNGIAGLDHEKMDDNMDALFQAIIDHVPAPVVDTEGPFQMQISQLDYNSFLGVIGIGRITRGKVKSNTPVVAISDDGSKRNGRILKIMGHHGLQRVEVAEAEAGDIVCVSGMEELFISDTLCDPQNVEALPPLTVDQPTVSMTFQVNDSPFAGREGKFVTSRNIKERLEKELLHNVALRVEPGDSPEKFKVSGRGELHLSVLIETMRREGFELAVGRPEVVIIEKDGEKQEPYENVTIDIEEQHQGSVMEQMGLRKGDLSNMIPDGKGRVRLEYTIPARGLIGFRNNFLTLTSGTGILTSTFSHYGPIKAGEVSNRQNGVLVSMATGTALTYSLETLQSRGKLFLGPGDEIYEGQLAGINSRDNDLVINPTKGKKLDNMRASGKDEVIALVPPIRFTLEQALEFIADDELVEVTPKSIRLRKKMLNENDRKRYERSKV
B11: PBP4 (enzyme, P. aeruginosa PAO1, UniProt Q9HZG1 1-476, looked up)
chain: QVNATLPANVQKALQTNKLTGNDLSLVLIPLDGPGNPTYYNADVSVNPASTMKLFTTYAALEMLGPTYQWKTEFYTDGQLKNGVLNGNLYLKGGGDPKLNMEKLWLLMRDLRANGVTKVTGDLVLDRSYFNIPQLPVFNDDGGDDTKPFLVGPDSLLVNLKSVRMVVRTDGNKVNVQMDPPLANVRIDNQVKMTAPATCPAWPKLRFSPVTQFDGTTLLATGQIPQGCSAQTYMSLLDHPGYTAGAVRGIWQELGGSILGKDRQGSVPRNATLIAKAFSPDLVEIIRDINKYSNNTMARQLFLSIGAQFRNSADGDDAQAAQRVVRQWLARKGITAPRLVMENGSGLSRQERVSAREMAAMLQAAWHSPYAAEYISSLPLAGLDGTMRKRLRRTALVGEAHVKTGTLNTVRALAGFSRDASGHNWVVVAILNSPRPWGASAILDQVLLSLHARK
B12: PBP7 (enzyme, P. aeruginosa PAO1, UniProt P72161 24-310, looked up)
chain: SPPPKAGLPLQQELASGSALVTDQNTGKVLYSRNPDLVVPIASITKLMTAMVVLDSKLPLDEVLPIAISETSEMRGVFSRVRVGSQISRRDMLLLALMSSENRAAASLAQNYPGGKNAFVKAMNAKAHALGMKNTRYVEPTGLSLHNVSTARDLTRLLVASRQYPLLSQWSTTPEKTVAFRHPNYTLGFRNTNHLINNKTWNIQLTKTGFTNEAGHCLVMRTTINRSPVNLVVLDAFGKYTHFADATRLRRWLETGQVTAIPAAAKAYRLQRDRERGLGQPVAQAVR

Columns and labels:
Details in all cases: both partners purified
[1] = molecular target: T1, RlpA-Δ32, fluorescently labeled; test: MST
[2] = molecular target: T2, RlpA-Δ32·MltF2 complex (MST); test: MST
[3] = molecular target: T3, RlpA-Δ32; test: SPR

Row | Binder | Kd [1] | Kd [2] | Kd [3] | koff [3] | kon [3]
1 | B1 | 140 nM | 95 nM | 3850 nM | 0.00127 s⁻¹ | 330 M⁻¹ s⁻¹
2 | B2 |  | 260 nM |  |  | 
3 | B3 | 77 nM | 150 nM |  |  | 
4 | B4 | 240 nM | 309 nM | 1980 nM | 0.00218 s⁻¹ | 1100 M⁻¹ s⁻¹
5 | B5 |  | 150 nM |  |  | 
6 | B6 |  | 220 nM |  |  | 
7 | B7 |  | 110 nM |  |  | 
8 | B8 |  | 35 nM |  |  | 
9 | B9 |  | 16000 nM |  |  | 
10 | B10 |  | 1800 nM |  |  | 
11 | B11 |  | 240 nM |  |  | 
12 | B12 | 430 nM |  |  |  | 5900 M⁻¹ s⁻¹
